The target in assay [1] is T1, zinc transporter (ZnT)8 peptide on HLA-A*02:01 (human).
T1 peptide: AVAANIVLTV
The assay can be described thus: multimer staining.

For assay [2], the target named is T2, zinc transporter (ZnT)8 peptide on HLA-A*02:01 (human).
T2 peptide: VAANIVLTV
The assay can be described thus: multimer staining.

Assay [3] addresses T3, recombinant HLA-A2 molecules (human).
T3 construct: also called HLA-A*02:01
The assay can be described thus: affinity measurement of recombinant HLA-A2 molecules complexed with the peptide (method not described; data not shown); ZnT8185-194 (…), the longer variant.

In assay [4] the target is T3, recombinant HLA-A2 molecules. The assay can be described thus: stability measurement of recombinant HLA-A2 molecules complexed with the peptide (method not described; data not shown).
For assay [5] the target is unchanged. The assay can be described thus: affinity measurement of recombinant HLA-A2 molecules complexed with the peptide (method not described; data not shown); ZnT8186-194 (…), the shorter epitope.

The source of these data is patent US20180244746A1 (INSERM INSTITUT NATIONAL DE LA SANT ET DE LA RECHERCHE M …, published 2018).

B1: H328C 9C8 (TCR)
alpha TRAV25*01 TRAJ26*01 CDR3: CAGILSYGQNFVF
beta TRBV25-1*01 TRBJ1-2*01 CDR3: CASSEVGQGFNGYTF
On to B1, for which the binding result in assay [1] and in assay [2] was “recognises” each time.

B2: ZnT8185-194 peptide (AVAANIVLTV) (peptide)
peptide: AVAANIVLTV
notes: Synthesized by ChinaPeptides at >85% purity
For B2, in assay [3], the Kd – broadly, the constant that tells how readily two partners part at equilibrium – is 207 nM. For the same molecule, in assay [4], the “t1/2 (stability of the peptide/HLA-A2 complex)” value was determined as 2.3 h.

B3: ZnT8186-194 peptide (VAANIVLTV) (peptide)
peptide: VAANIVLTV
notes: as for B2
As to B3, the “t1/2 (stability of the peptide/HLA-A2 complex)” value in assay [4] came to 1.8 h. In assay [5], the equilibrium dissociation constant (Kd) came to 15 nM.

B4: H328C 9B3 (TCR)
alpha TRAV21*01 TRAJ57*01 CDR3: CAVVRTQGGSEKLVF
beta TRBV9*01 TRBJ1-6*02 CDR3: CASSPWTGIPYNSPLHF
Turning to B4, the binding result in assay [1] and in assay [2] was “recognises” each time.

B5: D010R 1E2 (TCR)
alpha TRAV35*02 TRAJ36*01 CDR3: CAGTRNNLFF
beta TRBV19*01 TRBJ2-7*01 CDR3: CASGGSSYEQYF
For the molecule B5, the binding result in assay [1] and in assay [2] was “recognises” each time.

B6: D010R 12B4 (TCR)
alpha TRAV1-2*01 TRAJ26*01 CDR3: CAVDNYGQNFVF
beta TRBV19*01 TRBJ2-3*01 CDR3: CASTGLAGTQYF
For B6, in assay [2], the binding result is reported as “recognises”.
